Measurements published in PMC4621360 (eLife, 2015).

Target: T1, FG-N, MGT-Nsp1(48–172)-… (S. cerevisiae)
T1 construct: added N-terminal residues; Nsp1, FG nucleoporin, N-terminal Asn-rich segment of low charge with irregularly spaced FG repeats, residues 48-172; Isotope-labelled for NMR; source: E. coli BL21DE3 Gold, purified (8 M urea throughout, Talon resin); also observed inside living E. coli
Experiment: NMR titration; HSQC test of reversibility in buffer A; FG-N 50 μM, Kap95 added to 25 μM, then diluted with more FG-N
Settings: both partners purified

binding result: binds
B1: Kap95 (natural protein, S. cerevisiae)
chain: MSTAEFAQLLENSILSPDQNIRLTSETQLKKLSNDNFLQFAGLSSQVLIDENTKLEGRILAALTLKNELVSKDSVKTQQFAQRWITQVSPEAKNQIKTNALTALVSIEPRIANAAAQLIAAIADIELPHGAWPELMKIMVDNTGAEQPENVKRASLLALGYMCESADPQSQALVSSSNNILIAIVQGAQSTETSKAVRLAALNALADSLIFIKNNMEREGERNYLMQVVCEATQAEDIEVQAAAFGCLCKIMSLYYTFMKPYMEQALYALTIATMKSPNDKVASMTVEFWSTICEEEIDIAYELAQFPQSPLQSYNFALSSIKDVVPNLLNLLTRQNEDPEDDDWNVSMSAGACLQLFAQNCGNHILEPVLEFVEQNITADNWRNREAAVMAFGSIMDGPDKVQRTYYVHQALPSILNLMNDQSLQVKETTAWCIGRIADSVAESIDPQQHLPGVVQACLIGLQDHPKVATNCSWTIINLVEQLAEATPSPIYNFYPALVDGLIGAANRIDNEFNARASAFSALTTMVEYATDTVAETSASISTFVMDKLGQTMSVDENQLTLEDAQSLQELQSNILTVLAAVIRKSPSSVEPVADMLMGLFFRLLEKKDSAFIEDDVFYAISALAASLGKGFEKYLETFSPYLLKALNQVDSPVSITAVGFIADISNSLEEDFRRYSDAMMNVLAQMISNPNARRELKPAVLSVFGDIASNIGADFIPYLNDIMALCVAAQNTKPENGTLEALDYQIKVLEAVLDAYVGIVAGLHDKPEALFPYVGTIFQFIAQVAEDPQLYSEDATSRAAVGLIGDIAAMFPDGSIKQFYGQDWVIDYIKRTRSGQLFSQATKDTARWAREQQKRQLSL
notes: Kap95, nuclear transport factor; also called TF; transport factor; source: prepared as previously described (Tetenbaum-Novatt et al., 2012)
